Test results as given in US20140357851A1 (published 2014).
One block for each binder: values may come before it.

Columns and labels:
[1] = target: T1, cynomolgus monkey PCSK9, V5- and 6xHis-tagged (cynomolgus monkey, UniProt A0A7N9D9N8 150-747); test: BIAcore SPR, antibody amine-coupled to CM5 chip, PCSK9 as analyte, pH 7.4
T1 construct: also called cPCSK9-V5-6xHIS; CynoPCSK9
Description: Briefly, the surface plasmon resonance experiments were performed using Biacore 2000 optical biosensors (Biacore, GE Healthcare, Piscataway, N.J.). […] The concentration of PCSK9 protein was varied at 2 fold intervals (the analyte) and was injected over the immobilized antibody surface (at a flow rate of 100 μl/min for 1.5 minutes).
Antibody binding kinetic parameters including kₐ (association rate constant), kd (dissociation rate constant), and KD (dissociation equilibrium constant) were determined using the BIA evaluation 3.1 computer program (BIAcore, Inc. Piscataway, N.J.).

[2] = target: T1, cynomolgus monkey PCSK9, V5- and …; test: KinExA solution equilibrium
Excerpt: (§1) Briefly, Reacti-Gel™ (6×) (Pierce) was pre-coated with one of human, V5-tagged cyno or His-tagged mouse PCSK9 proteins and blocked with BSA. […] Equilibrium dissociation constant (KD) were obtained from nonlinear regression of the two sets of competition curves using a one-site homogeneous binding model. The KinExA® Pro software was employed in the analysis.

[3] = target: T2, mouse PCSK9, 8xHis-tagged (mouse, UniProt Q80W65 35-694, limits assumed); test: KinExA solution equilibrium
T2 construct: also called mPCSK9-8xHIS; mPCSK9
Excerpt: as §1

[4] = target: T1, cynomolgus monkey PCSK9, V5- and …; test: BIAcore solution equilibrium assay, free PCSK9 read on immobilized 21B12

- Kd [1]: 0.19 nM
- Kd [2]: 0.002 nM
B1: 31H4, anti-PCSK9 huIgG4 (antibody, V domains shown)
VH: EVQLVESGGGLVKPGGSLRLSCAASGFTFSSYSMNWVRQAPGKGLEWVSSISSSSSYISYADSVKGRFTISRDNAKNSLYLQMNSLRAEDTAVYFCARDYDFWSAYYDAFDVWGQGTMVTVSS
VL: QSVLTQPPSVSGAPGQRVTISCTGSSSNIGAGYDVHWYQQLPGTAPKLLISGNSNRPSGVPDRFSGSKSGTSASLAITGLQAEDEADYYCQSYDSSLSGSVFGGGTKLTVLQ

- fold lower affinity to mouse PCSK9 than to human and cyno PCSK9 [3]: 10 to 250 fold
- Kd [1]: 0.87 nM
- Kd [2]: 0.016 nM
B2: 16F12, anti-PCSK9 huIgG4 (antibody, V domains shown)
VH: QVHLVESGGGVVQPGRSLRLSCAASGFTFNSFGMHWVRQAPGKGLEWVALIWSDGSDEYYADSVKGRFTISRDNSKNTLYLQMNSLRAEDTAVYYCARAIAALYYYYGMDVWGQGTTVTVSS
VL: QSVLTQPPSVSAAPGQKVTISCSGSSSNIGNNFVSWYQQLPGTAPKLLIYDYNKRPSGIPDRFSGSKSGTSATLGITGLQTGDEADYYCGTWDSSLSAYVFGTGTRVTVLQ
notes: also called 16F12 IgG4; 16F12.1

- Kd [1]: 0.36 nM
- Kd [4]: 0.011 nM
B3: 21B12, anti-PCSK9 huIgG4 (antibody, V domains shown)
VH: QVQLVQSGAEVKKPGASVKVSCKASGYTLTSYGISWVRQAPGQGLEWMGWVSFYNGNTNYAQKLQGRGTMTTDPSTSTAYMELRSLRSDDTAVYYCARGYGMDVWGQGTTVTVSS
VL: QSALTQPASVSGSPGQSITISCTGTSSDVGGYNSVSWYQQHPGKAPKLMIYEVSNRPSGVSNRFSGSKSGNTASLTISGLQAEDEADYYCNSYTSTSMVFGGGTKLTVLQ
notes: also called 21B12 IgG4; 21B12.1
